Laboratory results: EP4740958A1 (QILU PHARMACEUTICAL CO., LTD., dated 2026)

Biological target: T1, recombinant human CCR8 protein (human, UniProt P51685 1-355, limits assumed)
T1 construct: Recombinant protein fixed on a CM5 chip by amino coupling (about 15 RU); also called human CCR8 recombinant protein
Test: SPR (Biacore 8K), CCR8 fixed on CM5 chip by amino coupling, antibody 1 nM-31.25 pM as analyte, 1:1 model

T1 sequence (P51685 whole entry): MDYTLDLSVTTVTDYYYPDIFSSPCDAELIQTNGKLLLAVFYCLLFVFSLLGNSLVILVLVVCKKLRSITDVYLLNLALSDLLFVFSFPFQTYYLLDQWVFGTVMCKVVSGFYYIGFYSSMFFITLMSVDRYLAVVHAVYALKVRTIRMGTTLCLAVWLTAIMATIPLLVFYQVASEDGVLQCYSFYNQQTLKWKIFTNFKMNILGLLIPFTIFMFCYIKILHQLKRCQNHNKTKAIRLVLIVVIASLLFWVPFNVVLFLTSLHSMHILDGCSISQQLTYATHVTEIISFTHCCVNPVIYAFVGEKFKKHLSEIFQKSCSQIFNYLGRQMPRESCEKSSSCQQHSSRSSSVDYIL

- Kd: 7.77 pM
- koff: 0.000131 s⁻¹
- kon: 1.69e+07 M⁻¹ s⁻¹
B1: anti-human CCR8 monoclonal antibody J06 (antibody, human IgG1, kappa, V domains shown)
VH: EVQLVESGGGVVQPGRSLRLSCAASGFPFEPFAMNWVRQAPGKGLEWVARIRSKANNYATYYADSVKDRFAISRDNSKRTLYLLMHSLRFEDTAVYYCVRGRENNYGYAMDYWGQGTTVTVSS
VL: DVVMTQSPPSLPVTLGQSASISCRSSQSLLHSNGITYLYWFLQRPGQSPRLLIYRMSNLASGVPDRFSGSGSGTDFTLRISRVEAEDVGVYYCMQHLTYPFTFGIGTKVEIKR
notes: also called J06 preparation; anti-CCR8 Mab 1187
